# Source: US20250136677A1 (ZOETIS SERVICES, published 2025)
# Where two headings read alike, the source gives them in different places.
# T1: canine IL-31 protein (Canine_IL31) (canine)
# T1 chain: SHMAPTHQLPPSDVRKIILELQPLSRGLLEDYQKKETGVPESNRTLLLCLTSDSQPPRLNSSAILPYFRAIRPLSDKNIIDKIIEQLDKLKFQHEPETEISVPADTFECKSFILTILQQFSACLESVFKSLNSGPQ
# T2: wildtype feline IL-31 protein (Feline_IL31_wildtype) (feline)
# T2 chain: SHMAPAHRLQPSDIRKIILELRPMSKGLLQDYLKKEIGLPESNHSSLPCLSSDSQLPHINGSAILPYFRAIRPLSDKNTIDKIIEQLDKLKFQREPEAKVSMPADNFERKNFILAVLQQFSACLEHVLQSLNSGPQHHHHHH
# T3: equine IL-31 protein (Equine_IL31) (equine)
# T3 construct: Recombinant equine IL-31
# T3 chain: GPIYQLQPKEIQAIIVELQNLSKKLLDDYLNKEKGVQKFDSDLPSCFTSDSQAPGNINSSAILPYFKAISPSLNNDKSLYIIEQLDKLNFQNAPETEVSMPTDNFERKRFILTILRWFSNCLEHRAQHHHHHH
# T4: human IL-31 (human, UniProt Q6EBC2 24-164)
# T4 sequence: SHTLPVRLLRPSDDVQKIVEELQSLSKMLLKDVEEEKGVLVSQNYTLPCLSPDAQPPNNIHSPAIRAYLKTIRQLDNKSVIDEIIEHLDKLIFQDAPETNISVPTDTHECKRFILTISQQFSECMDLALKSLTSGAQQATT
# T5: mutant feline IL-31 15H05 protein (Feline_IL31_15H05_mutant) (feline)
# T5 construct: also called feline 15H05 mutant; 15H05 IL-31 mutant
# T5 chain: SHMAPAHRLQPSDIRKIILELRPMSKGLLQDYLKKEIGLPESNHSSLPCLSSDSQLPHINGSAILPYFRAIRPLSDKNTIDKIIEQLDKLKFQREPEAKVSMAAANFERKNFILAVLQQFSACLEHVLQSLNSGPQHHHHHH
# T6: mutant feline IL-31 15H05 protein (Feline_IL31_15H05_mutant) (feline)
# T6 sequence: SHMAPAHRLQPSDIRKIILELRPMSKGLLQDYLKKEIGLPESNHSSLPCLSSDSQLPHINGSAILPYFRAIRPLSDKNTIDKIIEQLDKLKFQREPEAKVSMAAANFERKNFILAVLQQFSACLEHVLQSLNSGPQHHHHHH
# Experiments:
# [1] = target: T1, canine IL-31 protein (Canine_IL31); assay: SPR (Biacore), IL-31 on chip, 1:1 fit
# [2] = target: T2, wildtype feline IL-31 protein …; assay: cell-based or functional assay
# [3] = target: T1, canine IL-31 protein (Canine_IL31); assay: cell-based or functional assay
# [4] = target: T2, wildtype feline IL-31 protein …; assay: cell-based or functional assay
# [5] = target: T3, equine IL-31 protein (Equine_IL31); assay: SPR (Biacore), IL-31 surface, single antibody concentration
# Procedure: (§1) For the indirect ELISA method, antibody binding to wildtype and feline IL-31 15H05 mutant proteins was assessed. All nine canine monoclonal antibodies (ZIL1, ZIL8, ZIL8, ZIL11, ZIL69, ZIL94, ZIL154, ZIL159, and ZIL171) were capable of binding to wildtype feline IL-31 and binding was impacted by mutations in the mAb 15H05 epitope region confirming the correct binding phenotype determined during the initial screening used to identify them. In comparison, the 11E12 antibody bound to the wild-type feline IL-31 and its binding was not impacted by the mutations in the 15H05 epitope region as evidenced by the data in FIG. 4. To confirm binding, biacore analysis was performed using canine, feline, equine, human, feline 15H05 mutant, and feline 11E12 mutant IL-31 proteins as surfaces and a single test concentration of antibody. Similar to ELISA observations, all antibodies tested bound to wildtype feline IL-31. In agreement with the data described above in this section, mouse antibodies 11E12 and 15H05 both bound to canine and feline IL-31 surfaces. Three additional antibodies where shown to have this dual binding property, ZIL69 (partial canine binding), ZIL94, and ZIL159. From this group of nine fully canine antibodies, only ZIL1 and ZIL9 cross-reacted with equine IL-31. Of note, antibody 15H05 was the only one of all assayed herein that bound to canine, feline, and equine IL-31 indicating some level of epitope conservation across the three species. In contrast, none of the antibodies described herein bound to human IL-31. Additional biacore surfaces were used to verify ELISA observations showing differential binding of antibodies to wildtype feline IL-31 and two proteins with mutations in the 15H05 (15H05 mutant) or 11E12 (11E12 mutant) epitopes.
# [6] = target: T4, human IL-31; assay: as above
# Procedure: as §1
# [7] = target: T2, wildtype feline IL-31 protein …; assay: indirect ELISA, IL-31 protein coated
# Procedure: as §1, with “epitopes. […] In agreement with the ELISA results, all fully canine antibodies were impacted by the 15H05 mutation with the exception of ZIL94, ZIL154, and ZIL171 (partially affected). Differing results can be attributed to differences in the two assay methodologies.” for “epitopes.”
# [8] = target: T5, mutant feline IL-31 15H05 protein …; assay: indirect ELISA, IL-31 protein coated
# Procedure: as §1, with “epitopes. […] In agreement with the ELISA results, all fully canine antibodies were impacted by the 15H05 mutation with the exception of ZIL94, ZIL154, and ZIL171 (partially affected). Differing results can be attributed to differences in the two assay methodologies.” for “epitopes.”
# [9] = target: T2, wildtype feline IL-31 protein …; assay: SPR (Biacore), IL-31 on chip, 1:1 fit
# Procedure, shortened: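 IL-31 was amine-coupled (NHS/EDC) to the chip at 5 μg/mL and quenched with ethanolamine, and candidate mAbs were flowed over it as analytes. Binding curves were fitted to a 1:1 model.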
# [10] = target: T6, mutant feline IL-31 15H05 protein (Feline_IL31_15H05_mutant) (feline); assay: indirect ELISA, IL-31 protein coated
Binder,Kd [1] [nM],koff [1] [s⁻¹],kon [1] [M⁻¹ s⁻¹],"IC50, inhibition of feline IL-31-induced STAT3 phosphorylation, canine DH82 cells [2] [µg/mL]","IC50, inhibition of feline IL-31-induced STAT3 phosphorylation, feline FCWF4 cells [2] [µg/mL]",binding result [5],binding result [6],ELISA OD [7] [OD],ELISA OD [8] [OD],Kd [9] [nM],koff [9] [s⁻¹],kon [9] [M⁻¹ s⁻¹],other results
"mouse:feline 15H05 chimera (antibody, Mouse variable regions on feline IgG constant regions; made in HEK 293 cells; also called 15H05 mouse feline chimera) heavy: QVQLQQSAAELARPGASVKMSCKTSGYTFTSYTIHWIKQRPGQGLEWIGNINPTSGYTENNQRFKDKTTLTVDRSSNTAYLQLHSLTSEDSAVYFCARWGFKYDGEWSFDVWGAGTTVTVSSASTTAPSVFPLAPSCGTTSGATVALACLVLGYFPEPVTVSWNSGALTSGVHTFPAVLQASGLYSLSSMVTVPSSRWLSDTFTCNVAHPPSNTKVDKTVRKTDHPPGPKPCDCPKCPPPEAAGAPSIFIFPPKPKDTLSISRTPEVTCLVVDLGPDDSDVQITWFVDNTQVYTAKTSPREEQFNSTYRVVSVLPILHQDWLKGKEFKCKVNSKSLPSPIERTISKAKGQPHEPQVYVLPPAQEELSRNKVSVTCLIKSFHPPDIAVEWEITGQPEPENNYRTTPPQLDSDGTYFVYSKLSVDRSHWQRGNTYTCSVSHEALHSHHTQKSLTQSPGK light: DIQMNQSPSSLSASLGDTITVTCRASQGISIWLSWYQQKPGNIPKVLINKASNLHIGVPPRFSGSGSGTHFTLTITSLQPEDIATYYCLQSQTYPLTFGGGTKLEINRSDAQPSVFLFQPSLDELHTGSASIVCILNDFYPKEVNVKWKVDGVVQNKGIQESTTEQNSKDSTYSLSSTLTMSSTEYQSHEKFSCEVTHKSLASTLVKSFQRSECQRE",0.0129,1.62e-07,12600,5.59,3.25,–,–,–,–,–,–,–,"IC50 against canine IL-31 (pSTAT3; cell type not stated for this pair of values) [3]: 28.6 µg/ml; IC50 against feline IL-31 induced pSTAT3 signaling in feline FCWF4 cells, relative to the mouse:feline 11E12 chimera [4]: ~2 fold"
"mouse anti IL-31 antibody 11E12 (antibody, V domains shown, Mouse monoclonal comparison antibody; also called MU-11E12; mouse 11E12) VH: QVQLQQSGAELVKPGASVKLSCKASGYTFKYYDINWVRQRPEQGLEWIGWIFPGDGGTKYNETFKGKATLTTDKSSSTAYMQLSRLTSEDSAVYFCARGGTSVIRDAMDYWGQGTSVTVSS VL: DIVLTQSPASLAVSLGQRATISCRASESVDNYGISFMHWYQQKPGQPPKLLIYRASNLESGIPARFSGSGSRTDFTLTINPVETDDVATYYCQQSNKDPLTFGAGTKLELK",0.000763,4.8e-07,629000,2.47,2.01,no binding,no binding,1.15,1.33,0.738,0.000123,167000,–
"ZIL11 (recombinant fully canine antibody) (antibody, V domains shown, also called CAN-ZIL11; copies: 2 + 2) VH: EVQLVESGGDLVKPAGSLRLSCVASGFTFRTYVMNWVRQAPGKGLQWVASINGGGSSPTYADAVRGRFTVSRDNAQNSLFLQMNSLRAEDTAVYFCVVSMVGPFDYWGQGTLVTVSS VL: SSVLTQPPSVSVSLGQTATISCSGESLSNYYAQWFQQKAGQAPVLVIYKDTERPSGIPDRFSGSSSGNTHTLTISGARAEDEADYYCESAVSSDTIVFGGGTHLTVL",–,–,–,–,–,no binding,no binding,–,–,–,–,–,ELISA OD [10]: 0.33 OD
"Feline 11E12 1.1 (antibody, V domains shown, Variable chains were subcloned into plasmids with 'the respective feline heavy or kappa constant region'; Made in HEK 293 cells; also called Felinized 11E12 1.1; felinized 11E12) VH: QVLLVQSGAEVKKPGASVKIFCKASGYSFTYYDINWLRQAPEQGLEWMGWIFPGDGGTKYNETFKGRLTLTADTSTNTVYMELSSLRSADTAMYYCARGGTSVIRDAMDYWGQGALVTVSS VL: EIQMTQSPSSLSASPGDRVTITCRASESVDNYGISFMHWYQQKPGKVPKLLIYRASNLESGVPSRFSGSGSGTDFTLTISSLEPEDAATYYCQQSNKDPLTFGQGT",–,0.000141,185000,–,–,–,–,–,–,22.2,0.000444,20000,potency against feline IL-31 in the feline FCWF assay (pSTAT3) [4]: ~2 fold
"ZIL94 (recombinant fully canine antibody) (antibody, V domains shown, also called CAN-ZIL94) VH: EVQLVDSGGDLVKPGGSLRLSCVASGFTFSTYFMSWVRQAPGRGLQWVALISSDGSGTYYADAVKGRFTISRDNAKNTLYLQMNSLRAEDTAMYYCAIFWRAFNDWGQGTLVTVSS VL: QTVVIQEPSLSVSPGGTVTLTCGLNSGSVSTSNYPGWYQQTRGRTPRTIIYDTGSRPSGVPNRFSGSISGNKAALTITGAQPEDEADYYCSLYTDSDILVFGGGTHLTVLR",–,–,–,–,–,no binding,–,1.67,1.3,–,–,–,–
"ZIL8 (recombinant fully canine antibody) (antibody, V domains shown, also called CAN-ZIL8; copies: 2 + 2) VH: EVQLVESGGDLVKPAGSLRLSCVASGFTFSDYAMSWVRQAPGRGLQWVAGIDSVGSGTSYADAVKGRFTISRDDAKNTLYLQMFNLRAEDTAIYYCASGFPGSFEHWGQGTLVTVSS VL: QSVLTQPASVSGSLGQKVTISCTGSSSNIGSGYVGWYQQLPGTGPRTLIYYNSDRPSGVPDRFSGSRSGTTATLTISGLQAEDEADYYCSVYDRTFNAVFGGGTHLTVL",–,–,–,–,–,no binding,no binding,–,–,–,–,–,–
